This assay addresses human CD40 (human) (UniProt P25942). The assay can be described thus: flow cytometry on PATHHUNTER U2OS-NIK/NFkB reporter cells; isotype control; beside it Unstained 56.7 and hCD40-APC 16805.

Sequence of human CD40 (human) (P25942 21-277): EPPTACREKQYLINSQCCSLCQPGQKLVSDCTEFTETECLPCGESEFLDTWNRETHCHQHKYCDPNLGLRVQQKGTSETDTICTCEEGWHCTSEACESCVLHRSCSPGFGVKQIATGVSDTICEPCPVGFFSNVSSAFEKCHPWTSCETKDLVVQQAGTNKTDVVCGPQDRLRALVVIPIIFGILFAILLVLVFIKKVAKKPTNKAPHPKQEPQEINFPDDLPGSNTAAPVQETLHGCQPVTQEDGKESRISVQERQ

For APC Isotype (antibody), the MFI-APC was 2160.

These data come from patent US20220259281A1.
